Measured values as given in publication doi:10.1101/638080.

Molecular target: Chloride Intracellular Channel 1 (CLIC1), human, with N-terminal twin strep tag (human) (UniProt O00299)
Test: mass photometry

stoichiometry N: 6
Substance: Chloride Intracellular Channel 1 (CLIC1), human, with N-terminal twin strep tag (from UniProt O00299 1-241) (natural protein)
